Data on one substance can be found in PMC7570257.

The assay concerns the target PRMT1 catalytic core construct. In words: SEC. Background: Size exclusion chromatography separates by hydrodynamic size, large species first.

Take “PRMT1 catalytic core construct (domain or fragment)”: the stoichiometry N – broadly, the number of molecules, sites or subunits per partner or assembly – was 4.
